In patent publication US20070185311A1 (EPIX MEDICAL INC A DELAWARE, published 2007):
Starred links: 1 amine or outer side, 2 acyl side, 3 side chain; linkers in the order of their positions; H or OH if unused. Positions of bridges follow the written chain, without caps; N, C: chain ends. Non-standard residues stand in square brackets, D forms with d. No end group written: not given here. Phe(4-OMe) = COc1ccc(C[C@H](N[*:1])C(=O)[*:2])cc1; Phe(F5) = N[C@@H](Cc1c(F)c(F)c(F)c(F)c1F)C(=O)O; Bpa = N[C@@H](Cc1ccc(C(=O)c2ccccc2)cc1)C(=O)O; Ser(Bzl) = O=C([C@H](COCc1ccccc1)N[*:1])[*:2]; Tyr(3-Cl) = N[C@@H](Cc1ccc(O)c(Cl)c1)C(=O)O; Bip = N[C@@H](Cc1ccc(-c2ccccc2)cc1)C(=O)O; Tyr(3-F) = N[C@@H](Cc1ccc(O)c(F)c1)C(=O)O; Tyr(3-I) = N[C@@H](Cc1ccc(O)c(I)c1)C(=O)O; Phe(3-OMe) = COc1cccc(C[C@H](N)C(=O)O)c1; Phe(3-Me) = Cc1cccc(C[C@H](N)C(=O)O)c1; 2Nal = N[C@@H](Cc1ccc2ccccc2c1)C(=O)O; Hyp = O=C(O)[C@@H]1C[C@@H](O)CN1; hPhe = N[C@@H](CCc1ccccc1)C(=O)O; 2Pal = N[C@@H](Cc1ccccn1)C(=O)O; 4Pal = N[C@@H](Cc1ccncc1)C(=O)O; NDecylGly = CCCCCCCCCCNCC(=O)O; Phg = N[C@H](C(=O)O)c1ccccc1; Ad = adenosine base unit; Gu = guanosine base unit; Dht = not defined here; Taz = not defined here; Inp = O=C(O)C1CCNCC1

T1: DD(E) fragment of fibrin
T1 chain 1: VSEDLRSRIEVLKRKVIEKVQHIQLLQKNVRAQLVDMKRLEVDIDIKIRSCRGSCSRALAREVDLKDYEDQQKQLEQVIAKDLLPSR
T1 chain 2: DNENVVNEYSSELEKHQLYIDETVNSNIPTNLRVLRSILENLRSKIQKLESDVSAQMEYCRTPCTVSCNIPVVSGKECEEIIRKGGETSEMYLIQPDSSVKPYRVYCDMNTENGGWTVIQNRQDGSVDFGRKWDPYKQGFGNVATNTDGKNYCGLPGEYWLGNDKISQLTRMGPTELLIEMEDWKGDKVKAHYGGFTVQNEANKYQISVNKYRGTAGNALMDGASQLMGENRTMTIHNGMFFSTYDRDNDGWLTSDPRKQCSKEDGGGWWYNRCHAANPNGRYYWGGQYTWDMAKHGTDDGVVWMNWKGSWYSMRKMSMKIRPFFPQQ
T1 chain 3: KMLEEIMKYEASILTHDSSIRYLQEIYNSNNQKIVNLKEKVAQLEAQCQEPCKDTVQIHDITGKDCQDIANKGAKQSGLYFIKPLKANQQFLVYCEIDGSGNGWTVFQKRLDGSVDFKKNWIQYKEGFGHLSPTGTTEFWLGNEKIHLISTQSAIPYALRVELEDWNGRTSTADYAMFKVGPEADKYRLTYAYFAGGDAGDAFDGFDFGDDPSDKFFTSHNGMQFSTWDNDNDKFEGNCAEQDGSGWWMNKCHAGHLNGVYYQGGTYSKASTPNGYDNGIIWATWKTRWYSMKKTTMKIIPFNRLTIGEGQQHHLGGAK
T1 chain 4: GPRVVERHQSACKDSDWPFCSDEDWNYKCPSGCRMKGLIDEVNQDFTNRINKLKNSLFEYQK
T1 chain 5: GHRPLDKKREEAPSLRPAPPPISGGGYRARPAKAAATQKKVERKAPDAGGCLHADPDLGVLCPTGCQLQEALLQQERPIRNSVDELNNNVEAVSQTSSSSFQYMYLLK
T1 chain 6: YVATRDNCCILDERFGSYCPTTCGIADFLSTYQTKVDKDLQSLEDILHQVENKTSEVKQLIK

B1: F-H-C-Hyp-Y(3-I)-D-L-C-Dht-I (peptide)
peptide: FHC[Hyp][Tyr(3-I)]DLC[Dht]I
modifications: disulfide 3-8 (inferred); reading uncertain; also: printed as F-H-C-Hyp-Y(3-I)-D-L-C-Dht-I
B2: F-H-C-Hyp-Y(3-I)-D-L-C-Taz-I (peptide)
peptide: FHC[Hyp][Tyr(3-I)]DLC[Taz]I
modifications: disulfide 3-8 (inferred); reading uncertain; also: printed as F-H-C-Hyp-Y(3-I)-D-L-C-Taz-I

The binders below were run against DD(E) fragment of fibrin (assay: affinity to DD(E) fragment of fibrin).

Which Kd does the source give for [dF][dE]C[Hyp][Tyr(3-Cl)]GLCWIQ (disulfide 3-8 (inferred)) [(D-F)-(D-E)-C-Hyp-Y(3-Cl)-G-L-C-W-I-Q] here?
Its Kd is < 200 nM.

For FHC[Hyp][Tyr(3-I)]DLC[Bpa]I (disulfide 3-8 (inferred)) [F-H-C-Hyp-Y(3-I)-D-L-C-Bpa-I], which Kd is on record?
Its Kd is < 400 nM.

FHC[Hyp][Tyr(3-I)]DLCH[nVal] (disulfide 3-8 (inferred)) [F-H-C-Hyp-Y(3-I)-D-L-C-H-nVal] was tested. Which Kd did it give?
Its Kd is < 200 nM.

Which Kd does the source give for [Ad]HC[Hyp][Tyr(3-I)]DLCHI (disulfide 3-8 (inferred)) [Ad-H-C-Hyp-Y(3-I)-D-L-C-H-I] here?
The Kd was < 400 nM.

For FHCP[Tyr(3-Cl)]DLCHIL (disulfide 3-8 (inferred)) [F-H-C-P-Y(3-Cl)-D-L-C-H-I-L], which Kd is on record?
The Kd was < 200 nM.

For [hPhe]HC[Hyp]YDLCHIL (disulfide 3-8 (inferred)) [Hfe-H-C-Hyp-Y-D-L-C-H-I-L], which Kd is on record?
The Kd was < 500 nM.

FHCPYDLCHIL (disulfide 3-8 (inferred)) [F-H-C-P-Y-D-L-C-H-I-L] was tested. Which Kd did it give?
The Kd was < 300 nM.

How did the Kd turn out when FHC[Hyp][Tyr(3-I)]DLC[2Pal]I (disulfide 3-8 (inferred)) [F-H-C-Hyp-Y(3-I)-D-L-C-2Pal-I] was run?
The Kd was < 500 nM.

With [Tyr(3-Cl)]HC[Hyp][Tyr(3-I)]DLCHI (disulfide 3-8 (inferred)) [Y(3-Cl)-H-C-Hyp-Y(3-I)-D-L-C-H-I] as the binder, how does the Kd read?
The Kd was < 100 nM.

Which Kd does the source give for FHC[Hyp][Tyr(3-I)]DLCH[Phe(3-Me)] (disulfide 3-8 (inferred)) [F-H-C-Hyp-Y(3-I)-D-L-C-H-F(3-Me)] here?
Its Kd is < 200 nM.

[Bip]HC[Hyp]YDLCHIL (disulfide 3-8 (inferred)) [Bip-H-C-Hyp-Y-D-L-C-H-I-L] was tested. Which Kd did it give?
Its Kd is < 500 nM.

For FHC[Hyp]YDLCHIL (disulfide 3-8 (inferred)) [F-H-C-Hyp-Y-D-L-C-H-I-L], which Kd is on record?
The Kd was < 500 nM.

Which Kd does the source give for WECPYGLCWIQ (disulfide 3-8 (inferred)) [W-E-C-P-Y-G-L-C-W-I-Q] here?
The Kd was < 200 nM.

For FHC[Hyp][Tyr(3-I)]DLCH[Phe(3-OMe)] (disulfide 3-8 (inferred)) [F-H-C-Hyp-Y(3-I)-D-L-C-H-F(3-OMe)], which Kd is on record?
The Kd was < 100 nM.

With [Phe(4-OMe)][His(Bzl)]C[Hyp][Tyr(3-Cl)]DLCH[Bpa] (disulfide 3-8 (inferred)) [F(4-OMe)-H(Bzl)-C-Hyp-Y(3-Cl)-D-L-C-H-Bpa] as the binder, how does the Kd read?
The Kd was < 100 nM.

For [Phe(4-OMe)]HC[Hyp][Tyr(3-I)]DLCHIL (disulfide 3-8 (inferred)) [F(4-OMe)-H-C-Hyp-Y(3-I)-D-L-C-H-I-L], which Kd is on record?
Its Kd is < 100 nM.

Which Kd does the source give for B1 here?
Its Kd is < 500 nM.

F[dE]C[Hyp][Tyr(3-Cl)]GLCWIQ (disulfide 3-8 (inferred)) [F-(D-E)-C-Hyp-Y(3-Cl)-G-L-C-W-I-Q] was tested. Which Kd did it give?
Its Kd is < 300 nM.

LPCDYYGTC[NDecylGly]D (not fully specified; cysteine pairing not given here) [L-P-C-D-Y-Y-G-T-C-n(Decyl)G-D] was tested. Which Kd did it give?
The Kd was < 10000 nM.

Which Kd does the source give for LPCDYYGTC[MeL][Inp] (cysteine pairing not given here) [L-P-C-D-Y-Y-G-T-C-MeL-Inp] here?
The Kd was < 10000 nM.

Which Kd does the source give for [Tyr(26-Me)]HC[Hyp][Tyr(3-I)]DLCHI (disulfide 3-8 (inferred)) [Y(26-Me)-H-C-Hyp-Y(3-I)-D-L-C-H-I] here?
Its Kd is < 200 nM.

For YEC[Hyp][Tyr(3-Cl)]GLCWIQ (disulfide 3-8 (inferred)) [Y-E-C-Hyp-Y(3-Cl)-G-L-C-W-I-Q], which Kd is on record?
The Kd was < 300 nM.

[Gu]HC[Hyp][Tyr(3-I)]DLCHI (disulfide 3-8 (inferred)) [Gu-H-C-Hyp-Y(3-I)-D-L-C-H-I] was tested. Which Kd did it give?
The Kd was < 500 nM.

FHC[Hyp][Tyr(3-I)]DLCH[Phg] (disulfide 3-8 (inferred)) [F-H-C-Hyp-Y(3-I)-D-L-C-H-Phg] was tested. Which Kd did it give?
Its Kd is < 200 nM.

Which Kd does the source give for [Phe(4-OMe)]HC[Hyp]YDLCHIL (disulfide 3-8 (inferred)) [F(4-OMe)-H-C-Hyp-Y-D-L-C-H-I-L] here?
Its Kd is < 400 nM.

Which Kd does the source give for FHC[Hyp][Tyr(3-I)]DLC[4Pal]I (disulfide 3-8 (inferred)) [F-H-C-Hyp-Y(3-I)-D-L-C-4Pal-I] here?
Its Kd is < 200 nM.

FHC[Hyp][Tyr(3-F)]DLCHIL (disulfide 3-8 (inferred)) [F-H-C-Hyp-Y(3-F)-D-L-C-H-I-L] was tested. Which Kd did it give?
Its Kd is < 100 nM.

With FHC[Hyp]YDLCH[Bpa] (disulfide 3-8 (inferred)) [F-H-C-Hyp-Y-D-L-C-H-Bpa] as the binder, how does the Kd read?
Its Kd is < 300 nM.

Y[dE]C[Hyp][Tyr(3-Cl)]GLCWIQ (disulfide 3-8 (inferred)) [Y-(D-E)-C-Hyp-Y(3-Cl)-G-L-C-W-I-Q] was tested. Which Kd did it give?
Its Kd is < 100 nM.

[Phe(F5)]HC[Hyp][Tyr(3-I)]DLCHI (disulfide 3-8 (inferred)) [F(F5)-H-C-Hyp-Y(3-I)-D-L-C-H-I] was tested. Which Kd did it give?
The Kd was < 100 nM.

FEC[Hyp][Tyr(3-Cl)]GLCWIQ (disulfide 3-8 (inferred)) [F-E-C-Hyp-Y(3-Cl)-G-L-C-W-I-Q] was tested. Which Kd did it give?
Its Kd is < 500 nM.

For LPCDYYGTC[NDecylGly][dD] (not fully specified; cysteine pairing not given here) [L-P-C-D-Y-Y-G-T-C-n(Decyl)G-dD], which Kd is on record?
The Kd was < 10000 nM.

With B2 as the binder, how does the Kd read?
Its Kd is < 500 nM.

Biological target: T1, DD(E) fragment of fibrin
Assay: affinity to DD(E) fragment of fibrin

With S[dE]C[Hyp][Tyr(3-Cl)]GLCWIQ (disulfide 3-8 (inferred)) [S-(D-E)-C-Hyp-Y(3-Cl)-G-L-C-W-I-Q] as the binder, how does the Kd read?
The Kd was ≤ 200 nM.

WEC[Hyp][Tyr(3-Cl)]GLCFIQ (disulfide 3-8 (inferred)) [W-E-C-Hyp-Y(3-Cl)-G-L-C-F-I-Q] was tested. Which Kd did it give?
Its Kd is ≤ 200 nM.

For FHC[Hyp][Tyr(3-Cl)][2Nal]LCHIL (disulfide 3-8 (inferred)) [F-H-C-Hyp-Y(3-Cl)-(2-Nal)-L-C-H-I-L], which Kd is on record?
The Kd was ≤ 500 nM.

For WEC[Hyp][Tyr(3-Cl)]GLCHIQ (disulfide 3-8 (inferred)) [W-E-C-Hyp-Y(3-Cl)-G-L-C-H-I-Q], which Kd is on record?
Its Kd is ≤ 200 nM.

FHC[Hyp][Tyr(3-Cl)]FLCHIL (disulfide 3-8 (inferred)) [F-H-C-Hyp-Y(3-Cl)-F-L-C-H-I-L] was tested. Which Kd did it give?
The Kd was ≤ 500 nM.

For FHC[Hyp][Tyr(3-Cl)]GLCHIL (disulfide 3-8 (inferred)) [F-H-C-Hyp-Y(3-Cl)-G-L-C-H-I-L], which Kd is on record?
Its Kd is ≤ 400 nM.

Which Kd does the source give for T[dE]C[Hyp][Tyr(3-Cl)]GLCWIQ (disulfide 3-8 (inferred)) [T-(D-E)-C-Hyp-Y(3-Cl)-G-L-C-W-I-Q] here?
Its Kd is ≤ 200 nM.

How did the Kd turn out when HEC[Hyp][Tyr(3-Cl)]GLCHIQ (disulfide 3-8 (inferred)) [H-E-C-Hyp-Y(3-Cl)-G-L-C-H-I-Q] was run?
The Kd was ≤ 400 nM.

WEC[Hyp][Tyr(3-Cl)]GLCYIQ (disulfide 3-8 (inferred)) [W-E-C-Hyp-Y(3-Cl)-G-L-C-Y-I-Q] was tested. Which Kd did it give?
The Kd was ≤ 300 nM.

Which Kd does the source give for H[dE]C[Hyp][Tyr(3-Cl)]GLCWIQ (disulfide 3-8 (inferred)) [H-(D-E)-C-Hyp-Y(3-Cl)-G-L-C-W-I-Q] here?
Its Kd is ≤ 200 nM.

How did the Kd turn out when YEC[Hyp][Tyr(3-Cl)]GLCYIQ (disulfide 3-8 (inferred)) [Y-E-C-Hyp-Y(3-Cl)-G-L-C-Y-I-Q] was run?
Its Kd is ≤ 200 nM.

Which Kd does the source give for [Ser(Bzl)]HCPYDLCHIL (disulfide 3-8 (inferred)) [S(Bzl)-H-C-P-Y-D-L-C-H-I-L] here?
The Kd was ≤ 400 nM.
